Results from US20240352438A1, “MEANS AND METHODS FOR DETOXIFYING OCHRATOXIN A” (DSM Austria GmbH, priority 2021, published 2024).

Assay: OTA detoxification activity assay (specific activity, fluorescence reduction ex/em 390/450 nm)
Assay type: biochemical
Conditions: SEQ ID NO: 1 = 100%
Experimental: To determine the specific activity of recombinant target polypeptides produced e.g. as described in Example 2 above in units per liter (U/L), ochratoxin A (OTA) detoxification activity assays were performed. One unit is defined as the amount of enzyme necessary for degradation of 1 μmol or OTA in 1 min when using a starting OTA concentration of […].
OTA detoxification activity assays were set up in a final volume of the reaction mixture of […], containing the recombinant enzyme preparation (preferably diluted to yield a volumetric activity of 1-10 mU/L), and 200 ng/mL OTA in 100 mM sodium phosphate buffer.
Specific activities were determined at pH 6.0 and pH 7.5. As soon as all components of the reaction mixture were mixed, OTA degradation was followed at 37° C. on a fluorescence spectrophotometer (BioTek Synergy H1 MFD Multimode microplate reader) by following the reduction in fluorescence at ex/em 390 nm/450 nm. For work performed at pH 6.0 and 7.5, a 100 mM sodium phosphate buffer was used.
For calculation of the specific activity, the initial linear part of the recorded fluorescence reduction curve was used. In addition to the fluorescence-based method described above, OTA degradation was also determined by using the HPLC-MS method as described by Dellafiora et al. 2020, Toxins 12, 258, essentially confirming the fluorescence-based results. Genes encoding either of the indicated SEQ ID NOs are expressed as described herein and the specific activities for the obtained polypeptide preparation are exemplarily shown in Table 8. Analogously, enzymatic activities using either ochratoxin B, C or TA as substrate or can be found.

B1: 102 (protein)
chain: MTTRTRILTAFLSLLAANACAADAAPAAPHTVVLRAARMFDGASGKLVDHPQLTIVGNKIVRIAQGDKAEVPAGAEVVDLGDATLLPGFIDAHVHLSGQSSDNWYGDFFDNWMRFPAEQALYGAYYARITLEAGFTSVRDVGSTDWVALGLRNAIDAGKVPGPRMLVSNYAVGSTGGHADQDPIPPHKLPLAGPLQGVCNGPEECRAAVRYQIKYGANVIKFMPSGGVLSLSDPVDAPELSQDEMNAVIGESHAWGRKVAAHAHGDKAAKMAVAAGVDSIEHGSFIEDDTLRAMKAKNVYLVPTISAIAHVEEKIGTFPPVIAEKGRAAAAHLRQTFRHAVQIGVPIALGTDAGVGAHGSNAREFRYMVENGLTPAQALLAGTANAARLLGTFDRVGTLEAGKLADVVAVPGNPIADITVTERPLFVMKDGVVVRRDAVR
modifications: exemplary polypeptide
Specific OTA detoxification activities in % compared to the enzyme of SEQ ID NO: 1, pH 6.0: 50%
Specific OTA detoxification activities in % compared to the enzyme of SEQ ID NO: 1, pH 7.5: 89%

B2: 104 (protein)
chain: MTTRTRILTAFLSLLAANACAADAAPAAPHTVVLRAARMFDGASGKLVDHPQLTIVGNKIVRIAQGDKAEVPAGAEVVDLGDATLLPGFIDAHVHLSGQSSDNWYGDFFDNMMRFPAEQALYGAYYARITLEAGFTSVRDVGSTDWVALGLRNAIDAGKVPGPRMLVSNYAVGSTGGHADQDPFPPHKLPLAGPLQGVCNGPEECRAAVRYQIKYGANVIKFMPSGGVLSLSDPVDAPELSQDEMNAVIGESHAWGRKVAAHAHGDKAAKMAVAAGVDSIEHGSFIEDDTLRAMKAKNVYLVPTISAIAHVEEKIGTFPPVIAEKGRAAAAHLRQTFRHAVQIGVPIALGTDAGVGAHGSNAREFRYMVENGLTPAQALLAGTANAARLLGTFDRVGTLEAGKLADVVAVPGNPIADITVTERPLFVMKDGVVVRRDAVR
modifications: exemplary polypeptide
Specific OTA detoxification activities in % compared to the enzyme of SEQ ID NO: 1, pH 6.0: 102%
Specific OTA detoxification activities in % compared to the enzyme of SEQ ID NO: 1, pH 7.5: 71%

B3: 117 (protein)
chain: MTTRTRILTAFLSLLAANACAADAAPAAPHTVVLRAARMFDGASGKLVDHPQLTIVGNKIVRIAQGDKAEVPAGAEVVDLGDATLLPGFIDAHVHLSGQSSDNWYGDYFDNMMRFPAEQALYGAYYARITLEAGFTSVRDVGSTDWVALGLRNAIDAGKVPGPRMLVSNYAVGSTGGHADQDPIPPHKLPLAGPLQGVCNGPEECRAAVRYQIKYGANVIKFMPSGGVLSLSDPVDAPELSQDEMNAVIGESHAWGRKVAAHAHGDKAAKMAVAAGVDSIEHGSFIEDDTLRAMKAKNVYLVPTISAIAHVEEKIGTFPPVIAEKGRAAAAHLRQTFRHAVQIGVPIALGTDAGVGAHGSNAREFRYMVENGLTPAQALLAGTANAARLLGTFDRVGTLEAGKLADVVAVPGNPIADITVTERPLFVMKDGVVVRRDAVR
modifications: exemplary polypeptide
Specific OTA detoxification activities in % compared to the enzyme of SEQ ID NO: 1, pH 6.0: 40%
Specific OTA detoxification activities in % compared to the enzyme of SEQ ID NO: 1, pH 7.5: 80%

B4: 110 (protein)
chain: MTTRTRILTAFLSLLAANACAADAAPAAPHTVVLRAARMFDGASGKLVDHPQLTIVGNKIVRIAQGDKAEVPAGAEVVDLGDATLLPGFIDAHVHLSGQSSDNWYGDFFDNMMRFPAEQALYGAYYARITLEAGFTSVRDVGSTDWVALGLRNAIDAGKVPGPRMLVSNYAVGSTGGHADQDPIPPHKLPLAGPLQGVCNGPEECRAAVRYQIKYGANVIKFMPSGGVLSLSDPVDAPELSQDEMNAVIGESHAWGRKVAAHAHGDKAAKMAVAAGVDSIEHGSFIEDDTLRAMKAKNVYLVPTISAIAHVEEEIGTFPPVIAEKGRAAAAHLRQTFRHAVQIGVPIALGTDAGVGAHGSNAREFRYMVENGLTPAQALLAGTANAARLLGTFDRVGTLEAGKLADVVAVPGNPIADITVTERPLFVMKDGVVVRRDAVR
modifications: exemplary polypeptide
Specific OTA detoxification activities in % compared to the enzyme of SEQ ID NO: 1, pH 6.0: 33%
Specific OTA detoxification activities in % compared to the enzyme of SEQ ID NO: 1, pH 7.5: 48%

B5: 129 (protein)
chain: MTTRTRILTAFLSLLAANACAADAAPAAPHTVVLRAARMFDGASGKLVDHPQLTIVGNKIVRIAQGDKAEVPAGAEVVDLGDATLLPGFIDAHVHLSGQCSDNWYGDFFDNMMRFPAEQALYGAYYARITLEAGFTSVRDVGSTDWVALGLRNAIDAGKVPGPRMLVSNYAVGSTGGHADQDPIPPHKLPLAGPLQGVCNGPEECRAAVRYQIKYGANVIKFMPSGGVLSLSDPVDAPELSQDEMNAVIGESHAWGRKVAAHAHGDKAAKMAVAAGVDSIEHGSFIEDDTLRAMKAKNVYLVPTISAIAHVEEKIGCFPPVIAEKGRAAAAHLRQTFRHAVQIGVPIALGTDAGVGAHGSNAREFRYMVENGLTPAQALLAGTANAARLLGTFDRVGTLEAGKLADVVAVPGNPIADITVTERPLFVMKDGVVVRRDAVR
modifications: exemplary polypeptide
Specific OTA detoxification activities in % compared to the enzyme of SEQ ID NO: 1, pH 6.0: 51%
Specific OTA detoxification activities in % compared to the enzyme of SEQ ID NO: 1, pH 7.5: 83%

B6: 109 (protein)
chain: MTTRTRILTAFLSLLAANACAADAAPAAPHTVVLRAARMFDGASGKLVDHPQLTIVGNKIVRIAQGDKAEVPAGAEVVDLGDATLLPGFIDAHVHLSGQSSDNWYGDFFDNMMRFPAEQALYGAYYARITLEAGFTSVRDVGSTDWVALGLRNAIDAGKVPGPRMLVSNYAVGSTGGHADQDPIPPHKLPLAGPLQGVCNGPEECRAAVRYQIKYGANVIKFMPSGGVLSLSDPVDAPELSQDEMNAVIGESHAWGRKVAAHAHGDKAAKMAVAAGVDSIEHGSFIEDDTLRAMKAKNVYLVPTISAIAHVEEQIGTFPPVIAEKGRAAAAHLRQTFRHAVQIGVPIALGTDAGVGAHGSNAREFRYMVENGLTPAQALLAGTANAARLLGTFDRVGTLEAGKLADVVAVPGNPIADITVTERPLFVMKDGVVVRRDAVR
modifications: exemplary polypeptide
Specific OTA detoxification activities in % compared to the enzyme of SEQ ID NO: 1, pH 6.0: 74%
Specific OTA detoxification activities in % compared to the enzyme of SEQ ID NO: 1, pH 7.5: 107%

B7: 126 (protein)
chain: MTTRTRILTAFLSLLAANACAADAAPAAPHTVVLRAARMFDGASGKLVDHPQLTIVGNKIVRIAQGDKAEVPAGAEVVDLGDATLLPGFIDAHVHLSGQSSDNWYGDFFDNMMRFPAEQALYGAYYARITLEAGFTSVRDVGSTDWVALGLRNAIDAGKVPGPRMLVSNYAVGSTGGHADQDPIPPHKLPLAGPLQGVCNGPEECRAAVRYQIKYGANVIKFMPSGGVLSLSDPVDAPELSQDEMNAVIGESEAWGRKVAAHAHGDKAAKMAVAAGVRSIEHGSFIEDDTLRAMKAKNVYLVPTISAIAHVEEKIGTFPPVIAEKGRAAAAHLRQTFRHAVQIGVPIALGTDAGVGAHGSNAREFRYMVENGLTPAQALLAGTANAARLLGTFDRVGTLEAGKLADVVAVPGNPIADITVTERPLFVMKDGVVVRRDAVR
modifications: exemplary polypeptide
Specific OTA detoxification activities in % compared to the enzyme of SEQ ID NO: 1, pH 6.0: 63%
Specific OTA detoxification activities in % compared to the enzyme of SEQ ID NO: 1, pH 7.5: 75%

B8: 118 (protein)
chain: MTTRTRILTAFLSLLAANACAADAAPAAPHTVVLRAARMFDGASGKLVDHPQLTIVGNKIVRIAQGDKAEVPAGAEVVDLGDATLLPGFIDAHVHLSGQSSDNWYGDFFDNMQRFPAEQALYGAYYARITLEAGFTSVRDVGSTDWVALGLRNAIDAGKVPGPRMLVSNYAVGSTGGHADQDPIPPHKLPLAGPLQGVCNGPEECRAAVRYQIKYGANVIKFMPSGGVLSLSDPVDAPELSQDEMNAVIGESHAWGRKVAAHAHGDKAAKMAVAAGVDSIEHGSFIEDDTLRAMKAKNVYLVPTISAIAHVEEKIGTFPPVIAEKGRAAAAHLRQTFRHAVQIGVPIALGTDAGVGAHGSNAREFRYMVENGLTPAQALLAGTANAARLLGTFDRVGTLEAGKLADVVAVPGNPIADITVTERPLFVMKDGVVVRRDAVR
modifications: exemplary polypeptide
Specific OTA detoxification activities in % compared to the enzyme of SEQ ID NO: 1, pH 6.0: 26%
Specific OTA detoxification activities in % compared to the enzyme of SEQ ID NO: 1, pH 7.5: 22%
